From the RNAGym collection of RNA variant scans (doi:10.7554/elife.80360)

B1: HDV Ribozyme (parent)
chain: GGCCGGCAUGGUCCCAGCCUCCUCGCUGGCGCCGGCUGGGCAACAUUCCGAGGGGACCGUCCCCUCGGUAAUGGCGAAUGGGACCCA

Variants of: B1
Assay: self-cleavage, relative activity (ratio to wild type); higher = more cleavage; co-transcriptional

Q: With GGCCGGCAUGGUCCCAGCCUCCUCGCUGGCGCCGGCUGGGCAUCAUUCCGAGGGGACCGUCCCCUCGGUAAUGGCGACUGGGACCCA [A43U A78C] as the variant, how does the self-cleavage read?
A: 0.0817

Q: With GGCCGGCAUGGUCCCAGCCUCCUCGCUGGCGCCGGCUGGGCAUCAUUCCGAGGGGACCGUCCCCUCGGUACUGGCGAAUGGGACCCA [A43U A71C] as the variant, how does the self-cleavage read?
A: 0.543

Q: For GGCCGGCAUGGUCCCAGCCUCCUCGCUGGCGCCGGCUGGGCAUCAUUCCGAGGGGACCGUCCCCUCGGUAUUGGCGAAUGGGACCCA [A43U A71U], which self-cleavage is on record?
A: 0.565

Q: Which self-cleavage does the source give for GGCCGGCAUGGUCCCAGCCUCCUCGCUGGCGCCGGCUGGGCAUCAUUCCGAGGCGACCGUCCCCUCGGUAAUGGCGAAUGGGACCCA [A43U G54C] here?
A: 0.196

Q: With GGCCGGCAUGGUCCCAGCCUCCUCGCUGGCGCCGGCUGGGCAUCAUUCCGAGGUGACCGUCCCCUCGGUAAUGGCGAAUGGGACCCA [A43U G54U] as the variant, how does the self-cleavage read?
A: 0.432

Q: Which self-cleavage does the source give for GGCCGGCAUGGUCCCAGCCUCCUCGCUGGCGCCGGCUGGGCAUCAUUCCGAGGGGACCGUCCUCUCGGUAAUGGCGAAUGGGACCCA [A43U C63U] here?
A: 0.554

Q: Which self-cleavage does the source give for GGCCGGCAUGGUCCCAGCCUCCUCGCUGGCGCCGGCUGGGCAUCAUUCCGAGGGGACCGUCCCCUGGGUAAUGGCGAAUGGGACCCA [A43U C66G] here?
A: 0.47

Q: With GGCCGGCAUGGUCCCAGCCUCCUCGCUGGCGCCGGCUGGGCAUCAUUCCGAGGGGACCGUGCCCUCGGUAAUGGCGAAUGGGACCCA [A43U C61G] as the variant, how does the self-cleavage read?
A: 0.528

Q: Which self-cleavage does the source give for GGCCGGCAUGGUCCCAGCCUCCUCGCUGGCGCCGGCUGGGCAUCAUUCCGAGGGGACCGUCCCCUCGGUAAUGGCGAAUGGGACCAA [A43U C86A] here?
A: 0.554

Q: Which self-cleavage does the source give for GGCCGGCAUGGUCCCAGCCUCCUCGCUGGCGCCGGCUGGGCAUCAUUCCGAGGGGACGGUCCCCUCGGUAAUGGCGAAUGGGACCCA [A43U C58G] here?
A: 0.7

Q: For GGCCGGCAUGGUCCCAGCCUCCUCGCUGGCGCCGGCUGGGCAUCAUUCCGAGGGGACAGUCCCCUCGGUAAUGGCGAAUGGGACCCA [A43U C58A], which self-cleavage is on record?
A: 0.614

Q: For GGCCGGCAUGGUCCCAGCCUCCUCGCUGGCGCCGGCUGGGCAUCAUUUCGAGGGGACCGUCCCCUCGGUAAUGGCGAAUGGGACCCA [A43U C48U], which self-cleavage is on record?
A: 0.608

Q: For GGCCGGCAUGGUCCCAGCCUCCUCGCUGGCGCCGGCUGGGCAUCAUUCCGAGGGGACCGUCCCCUCGGUAAUGGCGGAUGGGACCCA [A43U A77G], which self-cleavage is on record?
A: 0.277

Q: With GGCCGGCAUGGUCCCAGCCUCCUCGCUGGCGCCGGCUGGGCAUCAUUCCGAGGGGACCGUCCCCUCGGUAAUGGCGUAUGGGACCCA [A43U A77U] as the variant, how does the self-cleavage read?
A: 0.151

Q: With GGCCGGCAUGGUCCCAGCCUCCUCGCUGGCGCCGGCUGGGCAUGAUUCCGAGGGGACCGUCCCCUCGGUAAUGGCGAAUGGGACCCA [A43U C44G] as the variant, how does the self-cleavage read?
A: 0.739

Q: With GGCCGGCAUGGUCCCAGCCUCCUCGCUGGCGCCGGCUGGGCAUUAUUCCGAGGGGACCGUCCCCUCGGUAAUGGCGAAUGGGACCCA [A43U C44U] as the variant, how does the self-cleavage read?
A: 1.07

Q: Which self-cleavage does the source give for GGCCGGCAUGGUCCCAGCCUCCUCGCUGGCGCCGGCUGGGCAUCAUUCCGAGGGGACCGUCCCCUCGGUAAUGGCGAAUGGGGCCCA [A43U A83G] here?
A: 0.0986

Q: Which self-cleavage does the source give for GGCCGGCAUGGUCCCAGCCUCCUCGCUGGCGCCGGCUGGGCAUCAUUCCGAAGGGACCGUCCCCUCGGUAAUGGCGAAUGGGACCCA [A43U G52A] here?
A: 0.561

Q: Which self-cleavage does the source give for GGCCGGCAUGGUCCCAGCCUCCUCGCUGGCGCCGGCUGGGCAUCAUUCCGAGGGGAACGUCCCCUCGGUAAUGGCGAAUGGGACCCA [A43U C57A] here?
A: 0.69

Q: With GGCCGGCAUGGUCCCAGCCUCCUCGCUGGCGCCGGCUGGGCAUCAUUCCGAGGGGACCAUCCCCUCGGUAAUGGCGAAUGGGACCCA [A43U G59A] as the variant, how does the self-cleavage read?
A: 0.633

Q: With GGCCGGCAUGGUCCCAGCCUCCUCGCUGGCGCCGGCUGGGCAUCAUUCCGAGGGGACCGUCCCCUCGGUAAUGGCGAAUGGGAGCCA [A43U C84G] as the variant, how does the self-cleavage read?
A: 0.146

Q: For GGCCGGCAUGGUCCCAGCCUCCUCGCUGGCGCCGGCUGGGCAUCAUUCCGAGGGGACCGUCCCCUCGGUAAUGGUGAAUGGGACCCA [A43U C75U], which self-cleavage is on record?
A: 0.128

Q: For GGCCGGCAUGGUCCCAGCCUCCUCGCUGGCGCCGGCUGGGCAUCAUUCCGAGGGGACCGUCCCCUCGGUAAUGGAGAAUGGGACCCA [A43U C75A], which self-cleavage is on record?
A: 0.0755

Q: Which self-cleavage does the source give for GGCCGGCAUGGUCCCAGCCUCCUCGCUGGCGCCGGCUGGGCAUCAUUCCGAGGGGACCGUCCCAUCGGUAAUGGCGAAUGGGACCCA [A43U C64A] here?
A: 0.397

Q: With GGCCGGCAUGGUCCCAGCCUCCUCGCUGGCGCCGGCUGGGCAUCAUUCAGAGGGGACCGUCCCCUCGGUAAUGGCGAAUGGGACCCA [A43U C49A] as the variant, how does the self-cleavage read?
A: 0.755

Q: Which self-cleavage does the source give for GGCCGGCAUGGUCCCAGCCUCCUCGCUGGCGCCGGCUGGGCAUCAUUCUGAGGGGACCGUCCCCUCGGUAAUGGCGAAUGGGACCCA [A43U C49U] here?
A: 0.554

Q: For GGCCGGCAUGGUCCCAGCCUCCUCGCUGGCGCCGGCUGGGCAUCAUUCGGAGGGGACCGUCCCCUCGGUAAUGGCGAAUGGGACCCA [A43U C49G], which self-cleavage is on record?
A: 0.516

Q: Which self-cleavage does the source give for GGCCGGCAUGGUCCCAGCCUCCUCGCUGGCGCCGGCUGGGCAUCAUUCCCAGGGGACCGUCCCCUCGGUAAUGGCGAAUGGGACCCA [A43U G50C] here?
A: 0.492

Q: With GGCCGGCAUGGUCCCAGCCUCCUCGCUGGCGCCGGCUGGGCAUCAUUCCGAGGGGACCGUCCCCUCGGUAAUGGCGAAUGGGACCCC [A43U A87C] as the variant, how does the self-cleavage read?
A: 0.314

Q: For GGCCGGCAUGGUCCCAGCCUCCUCGCUGGCGCCGGCUGGGCAUCAUUCCGAGGGGACCGUCCCCUCGGUAAUGGCGAAUGGGACCCG [A43U A87G], which self-cleavage is on record?
A: 0.274

Q: Which self-cleavage does the source give for GGCCGGCAUGGUCCCAGCCUCCUCGCUGGCGCCGGCUGGGCAUCAUUCCGAGUGGACCGUCCCCUCGGUAAUGGCGAAUGGGACCCA [A43U G53U] here?
A: 0.492

Q: Which self-cleavage does the source give for GGCCGGCAUGGUCCCAGCCUCCUCGCUGGCGCCGGCUGGGCAUCAUUCCGAGAGGACCGUCCCCUCGGUAAUGGCGAAUGGGACCCA [A43U G53A] here?
A: 0.407
